Data: US20250066745A1, “MUTANTS AND USE THEREOF” (BGI SHENZHEN, priority 2021, published 2025)
Positions count from the first letter of the chain named. Names and notes keep the numbering of the source.

B1: F26T N27D V29P A30G V31I A32G S33I A36I T37L L40I: Gaussia luciferase mutant (protein)
chain: MGVKVLFALICIAVAEAKPTENNEDTDIPGIGINFILTDIDADRGKLPGKKLPLEVLKEMEANARKAGCTRGCLICLSHIKCTPKMKKFIPGRCHTYEGDKESAQGGIGEAIVDIPEIPGFKDLEPMEQFIAQVDLCVDCTTGCLKGLANVQCSDLLKKWLPQRCATFASKIQGQVDKIKGAGGD
modifications: SIGNAL (1)..(17)
notes: Gaussia luciferase mutant
B2: F26V N27Y V29N A30D V31D D32L S33R A36R T37W L40Y K180R: Gaussia luciferase mutant (protein)
chain: MGVKVLFALICIAVAEAKPTENNEDVYINDDLRNFRWTDYDADRGKLPGKKLPLEVLKEMEANARKAGCTRGCLICLSHIKCTPKMKKFIPGRCHTYEGDKESAQGGIGEAIVDIPEIPGFKDLEPMEQFIAQVDLCVDCTTGCLKGLANVQCSDLLKKWLPQRCATFASKIQGQVDKIRGAGGD
modifications: SIGNAL (1)..(17)
notes: Gaussia luciferase mutant
B3: F26Y N27Y V29A A30G S33V A36V T37S L40G: Gaussia luciferase mutant (protein)
chain: B1 chain with T26Y, D27Y, P29A, I31V, G32A, I33V, I36V, L37S, I40G
modifications: SIGNAL (1)..(17)
notes: Gaussia luciferase mutant
B4: H79K P84A E102S S103I A104G E110P L124M: Gaussia luciferase mutant (protein)
chain: MGVKVLFALICIAVAEAKPTENNEDFNIVAVASNFATTDLDADRGKLPGKKLPLEVLKEMEANARKAGCTRGCLICLSKIKCTAKMKKFIPGRCHTYEGDKSIGQGGIGPAIVDIPEIPGFKDMEPMEQFIAQVDLCVDCTTGCLKGLANVQCSDLLKKWLPQRCATFASKIQGQVDKIKGAGGD
modifications: SIGNAL (1)..(17)
notes: Gaussia luciferase mutant
B5: H79K P84K E102K S103I V138E: Gaussia luciferase mutant (protein)
chain: B4 chain with A84K, S102K, G104A, P110E, M124L, V138E
modifications: SIGNAL (1)..(17)
notes: Gaussia luciferase mutant
B6: H79K P84L S103T A104G E110A: Gaussia luciferase mutant (protein)
chain: B4 chain with A84L, S102E, I103T, P110A, M124L
modifications: SIGNAL (1)..(17)
notes: Gaussia luciferase mutant
B7: H79K P84L V138D: Gaussia luciferase mutant (protein)
chain: B4 chain with A84L, S102E, I103S, G104A, P110E, M124L, V138D
modifications: SIGNAL (1)..(17)
notes: Gaussia luciferase mutant
B8: A42G Q152C T167G S170T G174N K178S A182Y G183A: Gaussia luciferase mutant (protein)
chain: MGVKVLFALICIAVAEAKPTENNEDFNIVAVASNFATTDLDGDRGKLPGKKLPLEVLKEMEANARKAGCTRGCLICLSHIKCTPKMKKFIPGRCHTYEGDKESAQGGIGEAIVDIPEIPGFKDLEPMEQFIAQVDLCVDCTTGCLKGLANVCCSDLLKKWLPQRCAGFATKIQNQVDSIKGYAGD
modifications: SIGNAL (1)..(17)
notes: Gaussia luciferase mutant
B9: I10T C11S A13D A15I E16R A17S: Gaussia luciferase mutant (protein)
chain: MGVKVLFALTSIDVIRSKPTENNEDFNIVAVASNFATTDLDADRGKLPGKKLPLEVLKEMEANARKAGCTRGCLICLSHIKCTPKMKKFIPGRCHTYEGDKESAQGGIGEAIVDIPEIPGFKDLEPMEQFIAQVDLCVDCTTGCLKGLANVQCSDLLKKWLPQRCATFASKIQGQVDKIKGAGGD
modifications: SIGNAL (1)..(17)
notes: Gaussia luciferase mutant
B10: K66N E102A S103T A104G E110G D123N L124M V138D K180: Gaussia luciferase mutant (protein)
chain: B4 chain with K66N, K79H, A84P, S102A, I103T, P110G, D123N, V138D
B11: K66N E102D S103T E110G L124M V138E: Gaussia luciferase mutant (protein)
chain: B4 chain with K66N, K79H, A84P, S102D, I103T, G104A, P110G, V138E
modifications: SIGNAL (1)..(17)
notes: Gaussia luciferase mutant
B12: K66N H79K E102D E110P L124M: Gaussia luciferase mutant (protein)
chain: B4 chain with K66N, A84P, S102D, I103S, G104A
modifications: SIGNAL (1)..(17)
notes: Gaussia luciferase mutant
B13: K66N H79K P84A E102E S103I D123N L124M V138E K159N I179*: Gaussia luciferase mutant (protein)
chain: MGVKVLFALICIAVAEAKPTENNEDFNIVAVASNFATTDLDADRGKLPGKKLPLEVLKEMEANARNAGCTRGCLICLSKIKCTAKMKKFIPGRCHTYEGDKEIAQGGIGEAIVDIPEIPGFKNMEPMEQFIAQVDLCEDCTTGCLKGLANVQCSDLLKNWLPQRCATFASKIQGQVDKKGAGGD
modifications: SIGNAL (1)..(17)
notes: Gaussia luciferase mutant
B14: K66N H79K P84K E102K S103I E110P L124M: Gaussia luciferase mutant (protein)
chain: B4 chain with K66N, A84K, S102K, G104A
modifications: SIGNAL (1)..(17)
notes: Gaussia luciferase mutant
B15: K66N P84A E102K S103I E110G L124M V138E: Gaussia luciferase mutant (protein)
chain: B4 chain with K66N, K79H, S102K, G104A, P110G, V138E
modifications: SIGNAL (1)..(17)
notes: Gaussia luciferase mutant

assay: Luminescence activity assay of purified Gaussia luciferase mutants on fluoro-coelenterazine; assay type: biochemical; design: key to Activity of mutant relative to wild-type Gaussia luciferase without the signal peptide: ratio of mutant luminescence intensity to wild-type Gaussia luciferase; settings: Substrate f-CTZ (Table 16)
Experimental: In this Example, the protein concentration was determined with a BCA quantitative kit (Thermo Scientific™ Pierce™ BCA Protein Assay Kit) accurately. The purified luciferase obtained in Example 5 was diluted with diluent (50 mM Tris-HCl, pH 8.0, 100 mM NaCl, 0.1% (v/v) Tween-20) to 1 μg/mL. The diluted luciferase, taken for 10 μL, was moved into a black 96-well plate, then added with 90 μL of the substrates coelenterazine, fluoro-coelenterazine or coelenterazine derivative ZS2 (purchased from Biolab) which was diluted into 100 μM with the same diluent, and the luminescence intensity of the plate was read with a self-luminescence module of a microplate reader. The mutation site of the mutant, the measured luminescence intensity, the ratio of luminescence intensities of the advantageous mutants to the wild-type Gaussia luciferase without the signal peptide having the sequence shown in SEQ ID NO: 3 are shown in Table 15. The results of catalytic activity assay of the advantageous mutants relative to the wild-type Gaussia luciferase without the signal peptide having the sequence shown in SEQ ID NO: 3 on substrate coelenterazine are shown in FIG. 6. […] The results of catalytic activity assay of the advantageous mutants relative to the wild-type Gaussia luciferase without the signal peptide having the sequence shown in SEQ ID NO: 3 on substrate fluoro-coelenterazine are shown in FIG. 7.
The new mutant library constructed in Example 7 was screened and tested for substrate specificity. Expression and purification schemes were the same as that in Example 5, and the activity assay scheme was the same as that in Example 6. The respective catalytic activities of combinatorial mutants on coelenterazine, fluoro-coelenterazine or coelenterazine derivative ZS2, and coelenterazine derivative ZS26 (purchased from BIOLAB) were assayed, and comparisons among the substrate specificities of the combinatorial mutants were based on the ratios of catalytic activities on two corresponding substrates.

Point of comparison: B13, “Activity of mutant relative to wild-type Gaussia luciferase without the signal peptide” value 0.009. Against it:
- B1 — higher, 0.210
- B2 — higher, 0.065
- B3 — higher, 0.192
- B4 — lower, 0.007
- B5 — higher, 0.479
- B6 — higher, 13.108
- B7 — higher, 0.936
- B8 — higher, 0.520
- B9 — higher, 0.086
- B10 — higher, 6.874
- B11 — higher, 0.794
- B12 — higher, 0.404
- B14 — higher, 1.728
- B15 — higher, 0.896

assay: Luminescence activity assay of purified Gaussia luciferase mutants on coelenterazine; assay type: biochemical; design: key to Activity of mutant relative to wild-type Gaussia luciferase without the signal peptide: ratio of mutant luminescence intensity to wild-type Gaussia luciferase; settings: Substrate CTZ (Table 16)
Method in brief: (§1)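 Readout: luminescence intensity, as ratio to signal-peptide-free wild-type enzyme. Enzyme 1 μg/mL, substrate 100 μM stock, 10 μL + 90 μL; buffer 50 mM Tris-HCl pH 8.0, 100 mM NaCl, 0.1% Tween-20.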

Point of comparison: B11, “Activity of mutant relative to wild-type Gaussia luciferase without the signal peptide” value 0.134. Against it:
- B1 — higher, 0.231
- B2 — lower, 0.072
- B3 — higher, 0.219
- B4 — lower, 0.000
- B5 — higher, 0.750
- B6 — higher, 1.921
- B7 — lower, 0.094
- B8 — higher, 2.527
- B9 — lower, 0.071
- B10 — higher, 0.945
- B12 — higher, 1.554
- B13 — lower, 0.000
- B14 — higher, 0.755
- B15 — higher, 0.654

assay: Luminescence activity assay of purified Gaussia luciferase mutants on coelenterazine derivative ZS2; assay type: biochemical; design: key to Activity of mutant relative to wild-type Gaussia luciferase without the signal peptide: ratio of mutant luminescence intensity to wild-type Gaussia luciferase; settings: Substrate ZS2 (Table 16)
Method in brief: as §1

Point of comparison: B15, “Activity of mutant relative to wild-type Gaussia luciferase without the signal peptide” value 0.620. Against it:
- B1 — lower, 0.224
- B2 — lower, 0.063
- B3 — lower, 0.177
- B4 — lower, 0.001
- B5 — lower, 0.452
- B6 — lower, 0.064
- B7 — lower, 0.068
- B8 — higher, 1.065
- B9 — lower, 0.116
- B10 — higher, 1.880
- B11 — lower, 0.471
- B12 — higher, 0.751
- B13 — lower, 0.001
- B14 — higher, 1.118
